Data on 3 sequences can be found in paper PMC6135047.

In the series the target is His-ToxR (Vibrio parahaemolyticus RIMD 2210633?) (UniProt Q05938). Briefly: DNase I footprinting.
Chain of UniProt Q05938 (Q05938 1-176): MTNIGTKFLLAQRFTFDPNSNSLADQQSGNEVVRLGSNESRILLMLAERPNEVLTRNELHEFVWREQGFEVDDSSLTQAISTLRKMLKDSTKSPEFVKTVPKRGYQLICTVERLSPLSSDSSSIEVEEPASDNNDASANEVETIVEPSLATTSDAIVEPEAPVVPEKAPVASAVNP
“CAGAGTGACCCAGAGCCGTTTTGATGCTGTTATTTTTCATCATTCGGCGCGATTAATATGCTAAAGATGGTCGGATTTTTTTCGTTTTAAGACGTTTGAAAACAACAAAGCTCAGCAATGTGCTGAGCTTTGTGTTCGATTGATTTGGCGGTGATGCCCTACTCTGGTG (double strand) [VP1687 footprint probe]”: the binding entry is given as “binds”.
For the sequence “CAGATTGCTGAATATCGGTGATGTATGAGAAATCGTTCAATGTAAAAAATATGCGCAATGATTGATGCTGGGAGAATAGAAAGGATGAGGTGGTATTTATAGTGAATATTGGTCGGGAGTTTTTAGAAAACTGAAAACGCCCTAAAAAAACACGTCTGATTTTGACAGCCTGATAAAAACGCACTTCATATAATTCGCTTGTATTGTACGAAAGGAGTGCAAGTGAATGAGTATTATCAAT (double strand) [VP1667 (vopN) footprint probe]”, the binding entry was “binds”.
Consider “TTTCAGGGACGACTTTGTGATTTAGCCCCATGAAATCACCACACTAAGATGTCATTTAACATGTGGCTGACAAATGTAAATTCAAGGTCAATATTGCTAAAAACGGTGTTTTTTTAGAAAAATTTAATTATCCTACCCCCCTAAAAGCATCTAAAACGTCGCGTATCTCCCATGCGCAAACGTAATTTTGTGATATAAATCACCATAATTACAACATCATCCATCTAAGAAGAACTAA (double strand) [toxR footprint probe]”, for which the binding result is given as “binds”.
